# Data taken from publication PMC6303401, “A NAC transcription factor, NOR-like1, is a new positive regulator of tomato fruit ripening”.
# B1: SlEXP1 wild (dsDNA)
# DNA 1: CTGAAATTTTAGCTAATTTTAACACGTATTCAATTTTGTATGATTGAATG
# DNA 2: CATTCAATCATACAAAATTGAATACGTGTTAAAATTAGCTAAAATTTCAG
# B2: SlPG2a wild (dsDNA)
# DNA 1: TATTTTAAAAAATACACTTAAAAGCGTGACTAAATATAAATTGTTGCTCA
# DNA 2: TGAGCAACAATTTATATTTAGTCACGCTTTTAAGTGTATTTTTTAAAATA
# B3: SlPL wild (dsDNA)
# DNA 1: TATCAATAACAGATAGTAATTTTACGTAATGATATTGAACGATGTATATA
# DNA 2: TATATACATCGTTCAATATCATTACGTAAAATTACTATCTGTTATTGATA
# B4: SlSGR1 wild (dsDNA)
# DNA 1: TAAGCAGTTATGCGTGTGCTGAAGTTGTTATTTCAAACGTGAAAAGGAAA
# DNA 2: TTTCCTTTTCACGTTTGAAATAACAACTTCAGCACACGCATAACTGCTTA
# B5: SlACS4 wild (dsDNA)
# DNA 1: GTTTTAACTTTTTAAATATTTTGACGTAAGTTTTTTGTTTTCCCCCAAAA
# DNA 2: TTTTGGGGGAAAACAAAAAACTTACGTCAAAATATTTAAAAAGTTAAAAC
# B6: SlGgpps2 wild (dsDNA)
# DNA 1: TACGTTTAGGATAGGACTTCATTACGTGTCAAGGACAAAAATAAACCTAT
# DNA 2: ATAGGTTTATTTTTGTCCTTGACACGTAATGAAGTCCTATCCTAAACGTA
# B7: SlACS2 wild (dsDNA)
# DNA 1: AATAAATTCTTTTTGACAGGGTGGCGTAAAAATAATTTTATTTTAAAATA
# DNA 2: TATTTTAAAATAAAATTATTTTTACGCCACCCTGTCAAAAAGAATTTATT
# B8: SlCEL2 wild (dsDNA)
# DNA 1: ATCCAATAGCATCCCACCACGTGTCGTAACAATATTGGTTTAACCCCAGG
# DNA 2: CCTGGGGTTAAACCAATATTGTTACGACACGTGGTGGGATGCTATTGGAT
# Molecular target: NOR-like1 (Solanum lycopersicum (cv. AC), UniProt K4CH25 1-329)
# Assay: EMSA; EMSA kit (Thermo Fisher), manufacturer's instructions; buffer, salt, pH and temperature not stated
# Details: protein: recombinant; tags: GST; chain copies: 2; label: biotin; blunt
# Chain of NOR-like1 (K4CH25 entry or part of it): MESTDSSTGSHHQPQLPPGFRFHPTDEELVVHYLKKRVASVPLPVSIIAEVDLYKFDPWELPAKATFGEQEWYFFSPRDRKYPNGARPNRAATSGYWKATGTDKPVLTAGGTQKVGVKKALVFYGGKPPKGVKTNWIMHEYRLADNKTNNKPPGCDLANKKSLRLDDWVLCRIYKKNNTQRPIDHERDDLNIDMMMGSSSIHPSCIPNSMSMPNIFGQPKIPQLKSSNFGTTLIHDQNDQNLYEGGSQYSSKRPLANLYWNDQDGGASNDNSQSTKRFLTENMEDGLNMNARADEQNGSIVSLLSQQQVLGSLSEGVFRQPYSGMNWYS
row,Binder,binding result
1,B1,binds
2,B2,binds
3,B3,binds
4,B4,binds
5,B5,binds
6,B6,binds
7,B7,binds
8,B8,binds
